Experimental data from publication PMC11379886, “Insights into phosphoethanolamine cellulose synthesis and secretion across the Gram-negative cell envelope” (Nature Communications, 2024).

T1: Escherichia coli BcsB (residues 55–779), as it stands in the BcsB-BcsC fusion (Escherichia coli, UniProt P37652 55-779)
T1 construct: E. coli BcsB, residues 55-779; Joined on one chain with Strep-tag II, BcsC 21-179 and a GSGSGS linker at its N-terminus (molecule m11); written apart for the BcsB-BcsC pair of the structure; source: E. coli C43, as part of the BcsB-BcsC fusion chain, co-purified with the Bcs complex
T1 sequence (looked up): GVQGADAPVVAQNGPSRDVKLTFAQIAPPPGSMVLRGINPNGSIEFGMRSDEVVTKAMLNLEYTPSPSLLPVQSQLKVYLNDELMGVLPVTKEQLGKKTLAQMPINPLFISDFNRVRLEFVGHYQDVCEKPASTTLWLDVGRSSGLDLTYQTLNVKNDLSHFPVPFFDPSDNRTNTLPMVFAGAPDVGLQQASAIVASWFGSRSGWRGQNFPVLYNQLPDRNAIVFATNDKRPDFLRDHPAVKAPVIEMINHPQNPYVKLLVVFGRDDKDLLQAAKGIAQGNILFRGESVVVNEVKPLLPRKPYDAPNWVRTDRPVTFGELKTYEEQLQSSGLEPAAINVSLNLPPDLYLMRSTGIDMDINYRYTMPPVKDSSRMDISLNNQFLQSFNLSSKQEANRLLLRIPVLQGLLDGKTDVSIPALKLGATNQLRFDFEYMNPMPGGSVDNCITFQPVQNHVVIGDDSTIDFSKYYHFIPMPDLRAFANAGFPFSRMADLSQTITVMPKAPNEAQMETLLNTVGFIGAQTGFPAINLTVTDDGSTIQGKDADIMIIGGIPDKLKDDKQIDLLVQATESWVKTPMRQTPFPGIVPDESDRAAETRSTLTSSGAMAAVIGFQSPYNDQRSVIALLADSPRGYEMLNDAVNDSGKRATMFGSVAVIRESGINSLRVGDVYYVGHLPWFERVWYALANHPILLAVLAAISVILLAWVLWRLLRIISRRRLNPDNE

B1: BcsB-BcsC fusion: BcsC TPR#1–4 fused to the N-terminus of Escherichia coli BcsB (other)
chain: VEAAPTAQQQLLEQVRLGEATHREDLVQQSLYRLELIDPNNPDVVAARFRSLLRQGDIDGAQKQLDRLSQLAPSSNAYKSSRTTMLLSTPDGRQALQQARLQATTGHAEEAVASYNKLFNGAPPEGDIAVEYWSTVAKIPARRGEAINQLKRINADAPGGSGSGSGVQGADAPVVAQNGPSRDVKLTFAQIAPPPGSMVLRGINPNGSIEFGMRSDEVVTKAMLNLEYTPSPSLLPVQSQLKVYLNDELMGVLPVTKEQLGKKTLAQMPINPLFISDFNRVRLEFVGHYQDVCEKPASTTLWLDVGRSSGLDLTYQTLNVKNDLSHFPVPFFDPSDNRTNTLPMVFAGAPDVGLQQASAIVASWFGSRSGWRGQNFPVLYNQLPDRNAIVFATNDKRPDFLRDHPAVKAPVIEMINHPQNPYVKLLVVFGRDDKDLLQAAKGIAQGNILFRGESVVVNEVKPLLPRKPYDAPNWVRTDRPVTFGELKTYEEQLQSSGLEPAAINVSLNLPPDLYLMRSTGIDMDINYRYTMPPVKDSSRMDISLNNQFLQSFNLSSKQEANRLLLRIPVLQGLLDGKTDVSIPALKLGATNQLRFDFEYMNPMPGGSVDNCITFQPVQNHVVIGDDSTIDFSKYYHFIPMPDLRAFANAGFPFSRMADLSQTITVMPKAPNEAQMETLLNTVGFIGAQTGFPAINLTVTDDGSTIQGKDADIMIIGGIPDKLKDDKQIDLLVQATESWVKTPMRQTPFPGIVPDESDRAAETRSTLTSSGAMAAVIGFQSPYNDQRSVIALLADSPRGYEMLNDAVNDSGKRATMFGSVAVIRESGINSLRVGDVYYVGHLPWFERVWYALANHPILLAVLAAISVILLAWVLWRLLRIISRRRLNPDNE
notes: N-terminal four TPRs of E. coli BcsC (TPR#1-4), residues 21-179; linker; E. coli BcsB, residues 55-779; The best map came from a tetrameric BcsB assembly; a fully assembled complex was also seen; also called nSS-Strep-TPR(#1-4)-(GS)3-B; engineered BcsB-BcsC fusion; source: E. coli C43, co-expressed with all other Bcs components, co-purified (Ni-NTA, Strep-Tactin, SEC), in detergent; not shown: …
B2: Escherichia coli BcsB (natural protein)
chain: TPATQPLINAEPAVAAQTEQNPQVGQVMPGVQGADAPVVAQNGPSRDVKLTFAQIAPPPGSMVLRGINPNGSIEFGMRSDEVVTKAMLNLEYTPSPSLLPVQSQLKVYLNDELMGVLPVTKEQLGKKTLAQMPINPLFISDFNRVRLEFVGHYQDVCEKPASTTLWLDVGRSSGLDLTYQTLNVKNDLSHFPVPFFDPSDNRTNTLPMVFAGAPDVGLQQASAIVASWFGSRSGWRGQNFPVLYNQLPDRNAIVFATNDKRPDFLRDHPAVKAPVIEMINHPQNPYVKLLVVFGRDDKDLLQAAKGIAQGNILFRGESVVVNEVKPLLPRKPYDAPNWVRTDRPVTFGELKTYEEQLQSSGLEPAAINVSLNLPPDLYLMRSTGIDMDINYRYTMPPVKDSSRMDISLNNQFLQSFNLSSKQEANRLLLRIPVLQGLLDGKTDVSIPALKLGATNQLRFDFEYMNPMPGGSVDNCITFQPVQNHVVIGDDSTIDFSKYYHFIPMPDLRAFANAGFPFSRMADLSQTITVMPKAPNEAQMETLLNTVGFIGAQTGFPAINLTVTDDGSTIQGKDADIMIIGGIPDKLKDDKQIDLLVQATESWVKTPMRQTPFPGIVPDESDRAAETRSTLTSSGAMAAVIGFQSPYNDQRSVIALLADSPRGYEMLNDAVNDSGKRATMFGSVAVIRESGINSLRVGDVYYVGHLPWFERVWYALANHPILLAVLAAISVILLAWVLWRLLRIISRRRLNPDNE
notes: BcsB, periplasmic inner-membrane-anchored subunit of the E. coli cellulose synthase complex; In the BcsB-BcsC fusion made from the same plasmid the BcsB part is residues 55-779; also called Ec BcsB; not shown: Strep-tag II, N-terminal, kept
B3: periplasmic domain of Escherichia coli BcsC (TPR#1–18; residues 24–709) (domain or fragment, UniProt P37650 24-709, looked up)
chain: APTAQQQLLEQVRLGEATHREDLVQQSLYRLELIDPNNPDVVAARFRSLLRQGDIDGAQKQLDRLSQLAPSSNAYKSSRTTMLLSTPDGRQALQQARLQATTGHAEEAVASYNKLFNGAPPEGDIAVEYWSTVAKIPARRGEAINQLKRINADAPGNTGLQNNLALLLFSSDRRDEGFAVLEQMAKSNAGREGASKIWYGQIKDMPVSDASVSALKKYLSIFSDGDSVAAAQSQLAEQQKQLADPAFRARAQGLAAVDSGMAGKAIPELQQAVRANPKDSEALGALGQAYSQKGDRANAVANLEKALALDPHSSNNDKWNSLLKVNRYWLAIQQGDAALKANNPDRAERLFQQARNVDNTDSYAVLGLGDVAMARKDYPAAERYYQQTLRMDSGNTNAVRGLANIYRQQSPEKAEAFIASLSASQRRSIDDIERSLQNDRLAQQAEALENQGKWAQAAALQRQRLALDPGSVWITYRLSQDLWQAGQRSQADTLMRNLAQQKSNDPEQVYAYGLYLSGHDQDRAALAHINSLPRAQWNSNIQELVNRLQSDQVLETANRLRESGKEAEAEAMLRQQPPSTRIDLTLADWAQQRRDYTAARAAYQNVLTREPANADAILGLTEVDIAAGDKAAARSQLAKLPATDNASLNTQRRVALAQAQLGDTAAAQRTFNKLIPQAKSQPPSME
notes: BcsC periplasmic domain, TPR#1-18, residues 24-709, cloned into pET20b; also called BcsC's periplasmic domain; N-terminal 18 TPRs of BcsC; source: E. coli Rosetta 2, periplasmic extract, purified (Ni-NTA, SEC)
B4: Escherichia coli cellulase BcsZ (enzyme)
chain: ACTWPAWEQFKKDYISQEGRVIDPSDARKITTSEGQSYGMFSALAANDRAAFDNILDWTQNNLAQGSLKERLPAWLWGKKENSKWEVLDSNSASDGDVWMAWSLLEAGRLWKEQRYTDIGSALLKRIAREEVVTVPGLGSMLLPGKVGFAEDNSWRFNPSYLPPTLAQYFTRFGAPWTTLRETNQRLLLETAPKGFSPDWVRYEKDKGWQLKAEKTLISSYDAIRVYMWVGMMPDSDPQKARMLNRFKPMATFTEKNGYPPEKVDVATGKAQGKGPVGFSAAMLPFLQNRDAQAVQRQRVADNFPGSDAYYNYVLTLFGQGWDQHRFRFSTKGELLPDWGQECANSH
notes: End of the His tag read from the plasmid's name; also called Ec BcsZ
B5: Escherichia coli BcsC TPR#1–4 (residues 21–179), as it stands in the BcsB-BcsC fusion (domain or fragment, UniProt P37650 21-179, looked up)
chain: VEAAPTAQQQLLEQVRLGEATHREDLVQQSLYRLELIDPNNPDVVAARFRSLLRQGDIDGAQKQLDRLSQLAPSSNAYKSSRTTMLLSTPDGRQALQQARLQATTGHAEEAVASYNKLFNGAPPEGDIAVEYWSTVAKIPARRGEAINQLKRINADAPG
notes: N-terminal four TPRs of E. coli BcsC (TPR#1-4), residues 21-179; Joined on one chain with BcsB 55-779 through a GSGSGS linker (molecule m11); written apart for the BcsB-BcsC pair of the structure; also called BcsC's TPRs#1–4; BcsC N-terminal TPRs; source: E. coli C43, as part of the BcsB-BcsC fusion chain, co-purified with the Bcs complex; not shown: Strep-tag II, N-terminal, kept
B6: Escherichia coli pEtN transferase BcsG, FLAG-tagged (enzyme, UniProt P37659 1-559, looked up)
chain: MTQFTQNTAMPSSLWQYWRGLSGWNFYFLVKFGLLWAGYLNFHPLLNLVFAAFLLMPLPRYSLHRLRHWIALPIGFALFWHDTWLPGPESIMSQGSQVAGFSTDYLIDLVTRFINWQMIGAIFVLLVAWLFLSQWIRITVFVVAILLWLNVLTLAGPSFSLWPAGQPTTTVTTTGGNAAATVAATGGAPVVGDMPAQTAPPTTANLNAWLNNFYNAEAKRKSTFPSSLPADAQPFELLVINICSLSWSDIEAAGLMSHPLWSHFDIEFKNFNSATSYSGPAAIRLLRASCGQTSHTNLYQPANNDCYLFDNLSKLGFTQHLMMGHNGQFGGFLKEVRENGGMQSELMDQTNLPVILLGFDGSPVYDDTAVLNRWLDVTEKDKNSRSATFYNTLPLHDGNHYPGVSKTADYKARAQKFFDELDAFFTELEKSGRKVMVVVVPEHGGALKGDRMQVSGLRDIPSPSITDVPVGVKFFGMKAPHQGAPIVIEQPSSFLAISDLVVRVLDGKIFTEDNVDWKKLTSGLPQTAPVSENSNAVVIQYQDKPYVRLNGGDWVPYPQ
notes: present as the full-length enzyme in the analysed sample; End of the FLAG tag read from the plasmid's name (G-FLAG); also called Ec BcsG; source: E. coli C43 (DE3), co-expressed with the other Bcs components or with the BcsA chimera, Rs BcsB and BcsF; co-purified; not shown: FLAG, C-terminal, kept

Tests used:
[1] = biological target: the molecule itself; assay: cryo-EM structure; BcsC TPR#1-4 fused to the N-terminus of BcsB, co-expressed with all other Bcs components, purified in detergent, about 2.2 mg/mL; focused refinement of a tetrameric BcsB assembly, about 3.2 Å
[2] = biological target: the molecule itself; assay: cryo-EM structure; purified Ec Bcs inner membrane complex in MSP2N2 nanodiscs incubated with the separately purified periplasmic domain of BcsC (TPR#1-18) at a molar ratio of 1:5 for 1 h on ice; low-resolution map
[3] = biological target: B2; assay: as above; details: both partners purified
[4] = biological target: the molecule itself; assay: cryo-EM structure; BcsC incubated with purified BcsZ at a molar 1:1.5; single particle analysis, about 2.7 Å for BcsZ
[5] = biological target: T1, Escherichia coli BcsB (residues …); assay: cryo-EM structure; BcsC TPR#1-4 fused to the N-terminus of BcsB, co-expressed with all other Bcs components, purified in detergent, about 2.2 mg/mL; focused refinement of a tetrameric BcsB assembly, about 3.2 Å; details: both partners purified
[6] = biological target: the molecule itself; assay: cryo-EM structure; reprocessing of the previously published cryo-EM data (EMD-23267) of the co-expressed, co-purified Ec inner membrane-associated Bcs complex, focused on BcsA-BcsG; ~5.7 Å; AlphaFold2 model docked as rigid bodies

Binder: B1
- stoichiometry N [1]: 4

Binder: B2
- stoichiometry N [2]: 6

Binder: B3
- binding result [3]: binds

Binder: B4
- stoichiometry N [4]: 4

Binder: B5
- binding result [5]: binds

Binder: B6
- stoichiometry N [6]: 3
